Legend:
full length human 5T4 = target: T1, full length human 5T4 (human, UniProt Q13641 32-420); assay: flow cytometry, HeLa cells, PE anti-human IgG F(ab')2, MFI PE
T1 construct: Uniprot Q13641; Used here also for endogenous 5T4 on the human tumour cell lines
T1 sequence: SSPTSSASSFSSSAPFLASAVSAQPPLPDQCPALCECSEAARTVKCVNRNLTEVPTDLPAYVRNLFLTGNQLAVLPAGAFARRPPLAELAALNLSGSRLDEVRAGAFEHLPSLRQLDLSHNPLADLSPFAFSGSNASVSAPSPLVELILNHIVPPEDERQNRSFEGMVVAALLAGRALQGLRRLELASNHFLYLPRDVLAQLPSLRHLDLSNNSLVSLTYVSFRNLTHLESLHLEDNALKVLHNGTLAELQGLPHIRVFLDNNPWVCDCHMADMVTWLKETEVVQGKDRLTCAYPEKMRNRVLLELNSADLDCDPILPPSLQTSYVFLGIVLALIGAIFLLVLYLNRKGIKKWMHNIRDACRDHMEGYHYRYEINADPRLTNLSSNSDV

[1] = target: T2, full length cynomolgus monkey 5T4 (cynomolgus monkey, UniProt Q4R8Y9 35-420); assay: flow cytometry, HEK-293 cells transfected with cynomolgus monkey 5T4 (right panel), PE anti-human IgG F(ab')2, MFI PE
T2 construct: Uniprot Q4R8Y9; also called cynomolgus monkey 5T4 on HEK-293 cells
T2 sequence: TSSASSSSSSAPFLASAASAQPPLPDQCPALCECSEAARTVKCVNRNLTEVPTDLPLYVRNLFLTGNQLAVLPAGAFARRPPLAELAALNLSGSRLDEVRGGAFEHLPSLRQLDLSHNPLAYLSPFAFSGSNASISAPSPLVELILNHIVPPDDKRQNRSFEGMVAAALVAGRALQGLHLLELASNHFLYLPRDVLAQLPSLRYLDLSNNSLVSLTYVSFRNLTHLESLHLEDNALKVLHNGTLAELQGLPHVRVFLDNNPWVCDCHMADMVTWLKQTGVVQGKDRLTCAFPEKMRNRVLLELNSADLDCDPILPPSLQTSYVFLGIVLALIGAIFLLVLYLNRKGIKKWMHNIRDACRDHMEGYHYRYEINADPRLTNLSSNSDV

B1: bsIgG1-huCD3-H101G-FEALx5T4-A3-FEAR (bispecific antibody)
heavy 1: not shown
VL 1: not shown
heavy 2: EVQLVESGGGLVQPKGSLKLSCAASGFTFNTYAMNWVRQAPGKGLEWVARIRSKSNNYATYYADSVKDRFTISRDDSQSMLYLQMNNLKTEDTAMYYCVRQWDYDVRAMNYWGQGTSVTVSSASTKGPSVFPLAPSSKSTSGGTAALGCLVKDYFPEPVTVSWNSGALTSGVHTFPAVLQSSGLYSLSSVVTVPSSSLGTQTYICNVNHKPSNTKVDKRVEPKSCDKTHTCPPCPAPEFEGGPSVFLFPPKPKDTLMISRTPEVTCVVVAVSHEDPEVKFNWYVDGVEVHNAKTKPREEQYNSTYRVVSVLTVLHQDWLNGKEYKCKVSNKALPAPIEKTISKAKGQPREPQVYTLPPSREEMTKNQVSLTCLVKGFYPSDIAVEWESNGQPENNYKTTPPVLDSDGSFFLYSRLTVDKSRWQQGNVFSCSVMHEALHNHYTQKSLSLSPGK
VL 2: DIVMTQSHIFMSTSVGDRVSITCKASQDVDTAVAWYQQKPGQSPKLLIYWASTRLTGVPDRFTGSGSGTDFTLTISNVQSEDLADYFCQQYSSYPYTFGGGTKLEIK
binding result (full length human 5T4): binds
binding result [1]: binds

From patent publication US20200277397A1 (Genmab, published 2020)
